Results published in publication PMC4434323.

Columns and labels:
[1] = biological target: sptf-3 (Y40B1A.4) (Caenorhabditis elegans) (UniProt Q9XW26)
[2] = biological target: T1, ZK337.2 (ZK337.2) (Caenorhabditis elegans) (UniProt O46016)
T1 sequence: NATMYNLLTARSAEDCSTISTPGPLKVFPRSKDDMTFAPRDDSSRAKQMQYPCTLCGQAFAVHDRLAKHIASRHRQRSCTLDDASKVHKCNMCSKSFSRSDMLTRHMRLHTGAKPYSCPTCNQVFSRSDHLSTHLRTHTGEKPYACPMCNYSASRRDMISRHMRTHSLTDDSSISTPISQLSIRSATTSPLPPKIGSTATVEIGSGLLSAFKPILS

[3] = biological target: egrh-1 (C27C12.2) (Caenorhabditis elegans) (UniProt Q18250)
Chain of egrh-1 (C27C12.2) (Caenorhabditis elegans) (Q18250 324-461): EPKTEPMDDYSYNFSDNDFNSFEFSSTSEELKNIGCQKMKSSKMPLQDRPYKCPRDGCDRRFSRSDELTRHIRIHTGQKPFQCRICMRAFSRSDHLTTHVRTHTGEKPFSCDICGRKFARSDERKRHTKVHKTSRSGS

[4] = biological target: ZC328.2 (ZC328.2) (Caenorhabditis elegans) (UniProt O02050)
Chain of ZC328.2 (ZC328.2) (Caenorhabditis elegans) (O02050 entry or part of it): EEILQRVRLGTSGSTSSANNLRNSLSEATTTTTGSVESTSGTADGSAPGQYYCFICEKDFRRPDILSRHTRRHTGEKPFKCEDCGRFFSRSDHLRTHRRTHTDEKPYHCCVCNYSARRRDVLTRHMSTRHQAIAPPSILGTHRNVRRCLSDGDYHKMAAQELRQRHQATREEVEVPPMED

[5] = biological target: T2, let-381 (F26B1.7) (Caenorhabditis elegans) (UniProt P91278)
T2 sequence: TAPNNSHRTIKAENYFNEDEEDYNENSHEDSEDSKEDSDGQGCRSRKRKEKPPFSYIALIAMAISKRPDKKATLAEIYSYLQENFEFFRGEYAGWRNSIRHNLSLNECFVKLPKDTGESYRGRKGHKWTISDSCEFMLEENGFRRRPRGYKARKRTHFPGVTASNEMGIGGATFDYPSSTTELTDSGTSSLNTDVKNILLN

[6] = biological target: T3, ceh-26 (K12H4.1) (Caenorhabditis elegans) (UniProt P34522)
T3 sequence: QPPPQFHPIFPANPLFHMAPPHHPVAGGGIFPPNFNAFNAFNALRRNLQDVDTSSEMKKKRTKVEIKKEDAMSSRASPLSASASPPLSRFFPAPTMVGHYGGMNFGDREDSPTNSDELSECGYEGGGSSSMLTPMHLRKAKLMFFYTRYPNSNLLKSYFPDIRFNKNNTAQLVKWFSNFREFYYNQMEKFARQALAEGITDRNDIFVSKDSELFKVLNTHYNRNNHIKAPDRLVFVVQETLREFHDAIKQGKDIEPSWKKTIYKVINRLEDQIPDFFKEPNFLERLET

[7] = test system: T4, slr-2 (Y59A8B.13) (Caenorhabditis elegans)
T4 sequence: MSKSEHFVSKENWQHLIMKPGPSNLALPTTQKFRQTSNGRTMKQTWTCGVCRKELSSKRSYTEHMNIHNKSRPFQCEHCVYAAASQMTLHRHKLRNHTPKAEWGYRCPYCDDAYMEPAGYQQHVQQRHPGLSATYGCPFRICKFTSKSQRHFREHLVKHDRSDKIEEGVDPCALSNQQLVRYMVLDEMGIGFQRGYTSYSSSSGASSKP

[8] = biological target: T5, nhr-70 (Y51A2D.17) (Caenorhabditis elegans) (UniProt G5EEL3)
T5 sequence: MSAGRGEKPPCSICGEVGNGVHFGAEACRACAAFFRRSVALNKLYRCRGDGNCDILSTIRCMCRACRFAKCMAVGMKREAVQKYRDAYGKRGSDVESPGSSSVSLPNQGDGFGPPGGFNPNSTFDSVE

[9] = biological target: T6, nhr-66 (T09A12.4) (Caenorhabditis elegans) (UniProt H2KYJ8)
T6 sequence: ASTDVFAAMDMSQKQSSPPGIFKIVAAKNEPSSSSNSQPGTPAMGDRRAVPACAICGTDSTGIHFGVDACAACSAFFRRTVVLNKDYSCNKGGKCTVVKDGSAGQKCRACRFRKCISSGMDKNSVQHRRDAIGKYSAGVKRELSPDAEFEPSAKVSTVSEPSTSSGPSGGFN

[10] = biological target: T7, odr-7 (T18D3.2) (Caenorhabditis elegans) (UniProt P41933)
T7 sequence: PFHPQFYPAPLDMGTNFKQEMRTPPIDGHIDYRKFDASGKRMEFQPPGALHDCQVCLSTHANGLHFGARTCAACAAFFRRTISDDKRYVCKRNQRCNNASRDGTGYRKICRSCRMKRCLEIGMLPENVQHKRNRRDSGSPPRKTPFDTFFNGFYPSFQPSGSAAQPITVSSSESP

[11] = biological target: T8, ceh-23 (ZK652.5) (Caenorhabditis elegans) (UniProt P34663)
T8 sequence: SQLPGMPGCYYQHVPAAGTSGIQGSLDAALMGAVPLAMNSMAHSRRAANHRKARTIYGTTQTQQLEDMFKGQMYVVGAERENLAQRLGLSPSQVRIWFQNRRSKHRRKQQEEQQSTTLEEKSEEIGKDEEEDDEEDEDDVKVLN

[12] = biological target: T9, eyg-1 (Y53C12C.1) (Caenorhabditis elegans) (UniProt O01996)
T9 sequence: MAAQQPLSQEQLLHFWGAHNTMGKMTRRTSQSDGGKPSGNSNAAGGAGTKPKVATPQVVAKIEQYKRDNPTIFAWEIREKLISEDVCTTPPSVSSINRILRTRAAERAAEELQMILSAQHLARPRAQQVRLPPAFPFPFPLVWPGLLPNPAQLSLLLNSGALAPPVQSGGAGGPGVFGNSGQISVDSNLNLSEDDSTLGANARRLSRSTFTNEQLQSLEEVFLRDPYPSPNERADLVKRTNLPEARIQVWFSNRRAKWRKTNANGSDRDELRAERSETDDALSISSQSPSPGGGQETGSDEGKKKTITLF

[13] = biological target: T10, Y61A9LA.9 (Y61A9LA.9) (Caenorhabditis elegans) (UniProt Q9N312)
T10 sequence: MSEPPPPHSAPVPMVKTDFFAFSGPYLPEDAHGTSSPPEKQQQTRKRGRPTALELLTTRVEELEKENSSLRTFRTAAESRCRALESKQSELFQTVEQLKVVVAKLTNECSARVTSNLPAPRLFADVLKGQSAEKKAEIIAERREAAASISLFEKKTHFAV

[14] = biological target: T11, ceh-51 (Y80D3A.3) (Caenorhabditis elegans) (UniProt Q9U1R1)
T11 sequence: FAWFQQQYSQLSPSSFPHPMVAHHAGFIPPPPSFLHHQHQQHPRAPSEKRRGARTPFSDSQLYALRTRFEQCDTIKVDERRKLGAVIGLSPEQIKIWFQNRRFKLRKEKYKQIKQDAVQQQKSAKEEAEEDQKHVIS

[15] = biological target: T12, die-1 (C18D1.1) (Caenorhabditis elegans) (UniProt A0A131MCR4)
T12 sequence: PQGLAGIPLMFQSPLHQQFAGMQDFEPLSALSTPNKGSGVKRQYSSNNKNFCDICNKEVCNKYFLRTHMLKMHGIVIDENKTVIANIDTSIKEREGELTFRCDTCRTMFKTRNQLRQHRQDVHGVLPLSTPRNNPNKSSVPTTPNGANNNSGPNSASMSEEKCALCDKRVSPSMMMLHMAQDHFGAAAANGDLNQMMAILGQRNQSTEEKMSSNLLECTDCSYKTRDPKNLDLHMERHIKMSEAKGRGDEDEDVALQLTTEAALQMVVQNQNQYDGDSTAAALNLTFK

[16] = biological target: klf-3 (F54H5.4) (Caenorhabditis elegans) (UniProt Q65ZG6)
Chain of klf-3 (F54H5.4) (Caenorhabditis elegans) (Q65ZG6 180-315): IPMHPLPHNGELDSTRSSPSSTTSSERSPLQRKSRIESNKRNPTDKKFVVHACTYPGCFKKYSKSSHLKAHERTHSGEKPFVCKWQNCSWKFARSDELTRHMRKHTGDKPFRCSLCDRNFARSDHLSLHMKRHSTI

Chain of sptf-3 (Y40B1A.4) (Caenorhabditis elegans) (Q9XW26 266-412): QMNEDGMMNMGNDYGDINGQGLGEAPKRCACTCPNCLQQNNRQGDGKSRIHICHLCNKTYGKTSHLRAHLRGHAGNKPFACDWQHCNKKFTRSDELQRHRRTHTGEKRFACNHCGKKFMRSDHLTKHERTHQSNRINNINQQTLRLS

ACCGCCCC (double strand) [8-mer ACCGCCCC]
binding signal (PBM E-score (-0.5 to 0.5)) [1]: 0.476

ACGCCCCC (double strand) [8-mer ACGCCCCC]
binding signal (PBM E-score (-0.5 to 0.5)) [2]: 0.495 | binding signal (PBM E-score (-0.5 to 0.5)) [3]: 0.495 | binding signal (PBM E-score (-0.5 to 0.5)) [4]: 0.486 | binding signal (PBM E-score (-0.5 to 0.5)) [1]: 0.49

GTAAACAC (double strand) [8-mer GTAAACAC]
binding signal (PBM E-score (-0.5 to 0.5)) [5]: 0.452

TGAAGAAA (double strand) [8-mer TGAAGAAA]
binding signal (PBM E-score (-0.5 to 0.5)) [6]: 0.453

CCAAGAAA (double strand) [8-mer CCAAGAAA]
binding signal (PBM E-score (-0.5 to 0.5)) [6]: 0.472

GACTGCAA (double strand) [8-mer GACTGCAA]
binding signal (PBM E-score (-0.5 to 0.5)) [7]: 0.491

AAACTGCA (double strand) [8-mer AAACTGCA]
binding signal (PBM E-score (-0.5 to 0.5)) [7]: 0.475

TATAAACA (double strand) [8-mer TATAAACA]
binding signal (PBM E-score (-0.5 to 0.5)) [5]: 0.483

AAGAAAGT (double strand) [8-mer AAGAAAGT]
binding signal (PBM E-score (-0.5 to 0.5)) [6]: 0.456

ATAAACAT (double strand) [8-mer ATAAACAT]
binding signal (PBM E-score (-0.5 to 0.5)) [5]: 0.473

ATTGTTTA (double strand) [8-mer ATTGTTTA]
binding signal (PBM E-score (-0.5 to 0.5)) [5]: 0.467

CGAAGAAA (double strand) [8-mer CGAAGAAA]
binding signal (PBM E-score (-0.5 to 0.5)) [6]: 0.453

AGACTGCA (double strand) [8-mer AGACTGCA]
binding signal (PBM E-score (-0.5 to 0.5)) [7]: 0.469

CACGCCCC (double strand) [8-mer CACGCCCC]
binding signal (PBM E-score (-0.5 to 0.5)) [1]: 0.473

AAGATCTT (double strand) [8-mer AAGATCTT]
binding signal (PBM E-score (-0.5 to 0.5)) [6]: 0.457

GACTACAA (double strand) [8-mer GACTACAA]
binding signal (PBM E-score (-0.5 to 0.5)) [7]: 0.468 | binding signal (PBM E-score (-0.5 to 0.5)) [8]: 0.495 | binding signal (PBM E-score (-0.5 to 0.5)) [9]: 0.488 | binding signal (PBM E-score (-0.5 to 0.5)) [10]: 0.476

TCTTAAGA (double strand) [8-mer TCTTAAGA]
binding signal (PBM E-score (-0.5 to 0.5)) [6]: 0.482

AACATCTT (double strand) [8-mer AACATCTT]
binding signal (PBM E-score (-0.5 to 0.5)) [6]: 0.457

AACTGCAA (double strand) [8-mer AACTGCAA]
binding signal (PBM E-score (-0.5 to 0.5)) [7]: 0.495

CGTCTTGA (double strand) [8-mer CGTCTTGA]
binding signal (PBM E-score (-0.5 to 0.5)) [6]: 0.454

ACTACAAA (double strand) [8-mer ACTACAAA]
binding signal (PBM E-score (-0.5 to 0.5)) [7]: 0.452 | binding signal (PBM E-score (-0.5 to 0.5)) [8]: 0.493 | binding signal (PBM E-score (-0.5 to 0.5)) [9]: 0.492 | binding signal (PBM E-score (-0.5 to 0.5)) [10]: 0.491

GGACTGCA (double strand) [8-mer GGACTGCA]
binding signal (PBM E-score (-0.5 to 0.5)) [7]: 0.476

AATTAATT (double strand) [8-mer AATTAATT]
binding signal (PBM E-score (-0.5 to 0.5)) [11]: 0.492 | binding signal (PBM E-score (-0.5 to 0.5)) [12]: 0.489 | binding signal (PBM E-score (-0.5 to 0.5)) [13]: 0.454

GGGGCGGA (double strand) [8-mer GGGGCGGA]
binding signal (PBM E-score (-0.5 to 0.5)) [1]: 0.475

AAGACATT (double strand) [8-mer AAGACATT]
binding signal (PBM E-score (-0.5 to 0.5)) [6]: 0.458

CTCCGCCC (double strand) [8-mer CTCCGCCC]
binding signal (PBM E-score (-0.5 to 0.5)) [1]: 0.451

CAAGAAAA (double strand) [8-mer CAAGAAAA]
binding signal (PBM E-score (-0.5 to 0.5)) [6]: 0.469

ATGTTTAC (double strand) [8-mer ATGTTTAC]
binding signal (PBM E-score (-0.5 to 0.5)) [5]: 0.455

ACTGCAAA (double strand) [8-mer ACTGCAAA]
binding signal (PBM E-score (-0.5 to 0.5)) [7]: 0.487

AACGTCTT (double strand) [8-mer AACGTCTT]
binding signal (PBM E-score (-0.5 to 0.5)) [6]: 0.48

GAACTGCA (double strand) [8-mer GAACTGCA]
binding signal (PBM E-score (-0.5 to 0.5)) [7]: 0.494

AACTACAA (double strand) [8-mer AACTACAA]
binding signal (PBM E-score (-0.5 to 0.5)) [7]: 0.492 | binding signal (PBM E-score (-0.5 to 0.5)) [8]: 0.487 | binding signal (PBM E-score (-0.5 to 0.5)) [9]: 0.489

ACGCCCCT (double strand) [8-mer ACGCCCCT]
binding signal (PBM E-score (-0.5 to 0.5)) [1]: 0.452

TCAAGAAA (double strand) [8-mer TCAAGAAA]
binding signal (PBM E-score (-0.5 to 0.5)) [6]: 0.462

GGGGCGTA (double strand) [8-mer GGGGCGTA]
binding signal (PBM E-score (-0.5 to 0.5)) [1]: 0.462

ATATTAAT (double strand) [8-mer ATATTAAT]
binding signal (PBM E-score (-0.5 to 0.5)) [14]: 0.467 | binding signal (PBM E-score (-0.5 to 0.5)) [13]: 0.453

GTTTATAA (double strand) [8-mer GTTTATAA]
binding signal (PBM E-score (-0.5 to 0.5)) [5]: 0.459

ATGGGCGG (double strand) [8-mer ATGGGCGG]
binding signal (PBM E-score (-0.5 to 0.5)) [1]: 0.456

CCGCCCAC (double strand) [8-mer CCGCCCAC]
binding signal (PBM E-score (-0.5 to 0.5)) [2]: 0.494 | binding signal (PBM E-score (-0.5 to 0.5)) [3]: 0.494 | binding signal (PBM E-score (-0.5 to 0.5)) [4]: 0.489 | binding signal (PBM E-score (-0.5 to 0.5)) [1]: 0.489

ATTTAAAT (double strand) [8-mer ATTTAAAT]
binding signal (PBM E-score (-0.5 to 0.5)) [13]: 0.47 | binding signal (PBM E-score (-0.5 to 0.5)) [15]: 0.477

GAACTACA (double strand) [8-mer GAACTACA]
binding signal (PBM E-score (-0.5 to 0.5)) [7]: 0.459

AGGGGCGG (double strand) [8-mer AGGGGCGG]
binding signal (PBM E-score (-0.5 to 0.5)) [1]: 0.494

ACGCCCAC (double strand) [8-mer ACGCCCAC]
binding signal (PBM E-score (-0.5 to 0.5)) [2]: 0.492 | binding signal (PBM E-score (-0.5 to 0.5)) [3]: 0.494 | binding signal (PBM E-score (-0.5 to 0.5)) [1]: 0.454 | binding signal (PBM E-score (-0.5 to 0.5)) [16]: 0.48
